Assay results as given in patent US9127040B2, “Regulation of sodium channels by PLUNC proteins” (The University of North Carolina at Chapel Hill, priority 2011, dated 2015).
Ends that are not written are not given here.

Key:
[1] = target: T1, ENaC (Homo sapiens, UniProt P37088+P51168+P51170); assay: Thin film amiloride-sensitive transepithelial PD in CF HBECs; assay type: cell-based; conditions: 10 μM S18, over 24 h
T1 construct: measured the transepithelial voltage under thin film conditions in human bronchial epithelial cultures; endogenous in cells; host or cells: primary human bronchial epithelial cultures (normal or CF donors)
T1 sequence (P37088 1-669): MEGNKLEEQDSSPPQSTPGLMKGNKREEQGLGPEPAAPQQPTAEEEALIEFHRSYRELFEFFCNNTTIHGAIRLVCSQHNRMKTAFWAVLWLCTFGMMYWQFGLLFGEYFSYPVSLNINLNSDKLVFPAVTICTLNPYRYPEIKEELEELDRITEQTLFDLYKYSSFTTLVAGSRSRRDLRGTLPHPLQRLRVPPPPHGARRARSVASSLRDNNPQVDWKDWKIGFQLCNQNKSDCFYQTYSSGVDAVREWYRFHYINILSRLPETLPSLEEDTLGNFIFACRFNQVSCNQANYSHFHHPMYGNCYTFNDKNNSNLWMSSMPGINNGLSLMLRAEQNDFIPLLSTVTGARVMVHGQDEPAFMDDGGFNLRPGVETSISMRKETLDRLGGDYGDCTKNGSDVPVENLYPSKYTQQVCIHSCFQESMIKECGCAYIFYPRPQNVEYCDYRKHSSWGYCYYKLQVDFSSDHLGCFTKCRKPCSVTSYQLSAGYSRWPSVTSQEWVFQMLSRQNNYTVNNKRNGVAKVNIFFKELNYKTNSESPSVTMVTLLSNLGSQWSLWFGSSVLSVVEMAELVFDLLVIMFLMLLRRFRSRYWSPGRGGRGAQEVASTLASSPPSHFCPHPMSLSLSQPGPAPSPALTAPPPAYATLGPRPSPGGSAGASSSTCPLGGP
T1 sequence (P51168 1-640): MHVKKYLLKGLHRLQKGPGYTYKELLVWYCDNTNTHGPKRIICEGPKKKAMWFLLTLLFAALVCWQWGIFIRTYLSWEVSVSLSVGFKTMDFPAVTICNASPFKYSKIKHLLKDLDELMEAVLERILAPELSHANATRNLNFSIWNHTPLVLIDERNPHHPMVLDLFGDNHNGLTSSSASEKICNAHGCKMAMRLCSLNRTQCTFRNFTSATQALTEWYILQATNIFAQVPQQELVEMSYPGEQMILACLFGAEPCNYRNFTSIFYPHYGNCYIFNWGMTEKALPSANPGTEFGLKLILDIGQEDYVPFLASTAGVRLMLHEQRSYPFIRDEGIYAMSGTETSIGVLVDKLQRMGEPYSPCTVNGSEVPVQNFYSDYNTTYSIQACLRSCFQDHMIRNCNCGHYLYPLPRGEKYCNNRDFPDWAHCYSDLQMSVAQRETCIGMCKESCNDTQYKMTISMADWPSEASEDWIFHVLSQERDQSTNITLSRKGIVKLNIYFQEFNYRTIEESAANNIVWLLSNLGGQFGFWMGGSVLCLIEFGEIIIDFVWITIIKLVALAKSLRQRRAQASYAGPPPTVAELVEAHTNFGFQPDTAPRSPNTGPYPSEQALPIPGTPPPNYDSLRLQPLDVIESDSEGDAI
T1 sequence (P51170 1-649): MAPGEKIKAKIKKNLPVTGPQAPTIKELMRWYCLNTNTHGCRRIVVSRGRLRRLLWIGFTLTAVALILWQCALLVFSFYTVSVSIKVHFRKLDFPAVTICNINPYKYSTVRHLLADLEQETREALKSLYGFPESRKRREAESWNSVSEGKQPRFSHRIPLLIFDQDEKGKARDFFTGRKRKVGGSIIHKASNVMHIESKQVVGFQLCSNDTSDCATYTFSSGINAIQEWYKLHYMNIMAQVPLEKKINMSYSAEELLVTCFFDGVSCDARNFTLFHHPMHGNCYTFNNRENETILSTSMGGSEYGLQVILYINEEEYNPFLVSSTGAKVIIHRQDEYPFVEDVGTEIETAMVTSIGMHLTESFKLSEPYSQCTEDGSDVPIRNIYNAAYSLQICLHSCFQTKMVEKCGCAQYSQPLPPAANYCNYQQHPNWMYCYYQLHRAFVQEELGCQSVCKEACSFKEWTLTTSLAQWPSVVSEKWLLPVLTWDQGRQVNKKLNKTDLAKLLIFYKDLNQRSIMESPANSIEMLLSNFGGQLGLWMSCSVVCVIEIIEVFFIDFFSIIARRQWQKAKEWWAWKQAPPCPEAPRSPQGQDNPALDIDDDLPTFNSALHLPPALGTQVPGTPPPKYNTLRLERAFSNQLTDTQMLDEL
Method: A, airway surface liquid (ASL) height with time in CF HBECs measured by XZ confocal microscopy after apical addition of 20 μl Ringer with rhodamine-dextran. ▪=control; ▴=10 μM S18. Both n=6. B, Thin film amiloride-sensitive transepithelial PD measured in the same cultures as A, with microelectrodes positioned in the ASL and serosal bath. Open bars, control, closed bars, S18, n=6. C, Dose response to S18 vs. ASL height in CF primary human bronchial epithelial cultures (HBECs) measured 8 h after S18 addition. D, Bar graph of 8 h ASL height in CF HBECs. Control (open bars), S18 black bars, aprotinin, gray bars. NE, neutrophil elastase. ANS, activated neutrophil supernatant. All n=6. *p<0.05 different to vehicle. †p<0.05 different to aprotinin.
(§1) A single-barreled potential difference-sensing electrode was placed in the airway surface liquid by micromanipulator and used in conjunction with a macroelectrode in the serosal solution to measure transepithelial voltage using a voltmeter (World Precision Instruments). […] Transepithelial resistance was routinely measured using the EVOM system (WPI) as previously described (Tarran et al., J. Gen. Physiol. 127:591 (2006)).

[2] = target: T1, ENaC; assay: Transepithelial voltage (PD), thin film conditions, human bronchial epithelial cultures; assay type: cell-based
Excerpt: Tissue procurement and cell culture: Cells were harvested by enzymatic digestion from human bronchial tissue as previously described under a protocol approved by the UNC School of Medicine IRB (Tarran et al., J. Gen. Physiol. 127:591 (2006)). Human excess donor lungs and excised recipient lungs were obtained at the time of lung transplantation from portions of main stem or […] bronchi and cells were harvested by enzymatic digestion. All preparations were maintained at an air-liquid interface in a modified bronchial epithelial medium and used 2-5 weeks after seeding on 12 mm T-Clear inserts (Corning Costar) coated with human placental type VI collagen (Sigma). Phosphate buffered saline (PBS) was used for washing human bronchial epithelial culture mucosal surfaces. HBECs were maintained at an air-liquid interface in a modified bronchial epithelial growth medium (BEGM) with 5% CO2 at 37° C. and used 2-5 weeks after seeding on 12-mm T-clear inserts (Corning-Costar, Corning, N.Y., USA) (Randell, Methods Mol. Biol. 742:285 (2011)).
as §1

Molecule: GGLPVPLDQTLPLNVNPA [S18]
- amiloride-sensitive PD [1]: reduced the amiloride-sensitive PD

B1: SPLUNC1: human SPLUNC1 (SEQ ID NO:1), 256 amino acid secreted PLUNC family protein; rSPLUNC1 is the purified V5/6His-tagged recombinant form (protein, listed as Homo sapiens)
chain: MFQTGGLIVFYGLLAQTMAQFGGLPVPLDQTLPLNVNPALPLSPTGLAGSLTNALSNGLLSGGLLGILENLPLLDILKPGGGTSGGLLGGLLGKVTSVIPGLNNIIDIKVTDPQLLELGLVQSPDGHRLYVTIPLGIKLQVNTPLVGASLLRLAVKLDITAEILAVRDKQERIHLVLGDCTHSPGSLQISLLDGLGPLPIQGLLDSLTGILNKVLPELVQGNVCPLVNEVLRGLDITLVHDIVNMLIHGLQFVIKV
modifications: V5/6His tag in recombinant form
notes: rSPLUNC1 is the purified V5/6His-tagged recombinant form
- transepithelial voltage ([2]; 50 ng/ml rSPLUNC1 in 20 μl Ringer, PBS-washed cultures): significantly reduced the transepithelial voltage
- regulation of transepithelial voltage in cultures lacking SPLUNC1 ([2]; SPLUNC1 shRNA knockdown, 50 ng/ml rSPLUNC1): restored
- transepithelial voltage, cultures not pre-washed ([2]; airway surface liquid left to accumulate for 24 h): without further effect
- onset of inhibition ([2]; human bronchial epithelial cultures, FIG. 2C, 2D): 30 to 60 min
- transepithelial voltage, addition to amiloride-treated cultures ([2]; rSPLUNC1 added to the same amiloride-treated cultures, n=12): without further effect
- rate of inhibition of the transepithelial voltage ([2]; rSPLUNC1 vs aprotinin addition, effects not additive): identical rates
